{"source": "the RNAGym collection of RNA variant scans (doi:10.7554/elife.90254)", "parents": {"B1": {"name": "OR4K15 (parent)", "chain": "GUUAACGGUCAUAGGCCAUGGAAACUAGGAGCACCAUUUCGCUGCCAGUGAAGAAAUGAACAAAGAAAAUCUGGGCCAGGCAGGCAUCAAAAGAAAUAGUCUUGCGCUCAACCAGAAAGUCUGUAAUCAUUUUAAGGGUA"}}}
{"variants_of": "B1", "experiment": "self-cleavage, relative activity (ratio to wild type); higher = more cleavage; in vitro, sequencing; the parent is a self-cleaving ribozyme"}
{"variant": "C34A A82G", "self-cleavage": 0.76}
{"variant": "U37C A91G", "self-cleavage": 1.36}
{"variant": "U37C A91U", "self-cleavage": 2}
{"variant": "U37G U130C", "self-cleavage": 0.05}
{"variant": "A36G U131A", "self-cleavage": 0.59}
{"variant": "A36G U131C", "self-cleavage": 1.59}
{"variant": "U37C G137A", "self-cleavage": 1.64}
{"variant": "C35U A96G", "self-cleavage": 0.88}
{"variant": "A36G U122A", "self-cleavage": 1.66}
{"variant": "A36G U122C", "self-cleavage": 1.25}
{"variant": "U37C A82G", "self-cleavage": 0.69}
{"variant": "C35U A94G", "self-cleavage": 0.64}
{"variant": "U37C A69G", "self-cleavage": 1.17}
{"variant": "A36C A135G", "self-cleavage": 2.33}
{"variant": "C35U U43A", "self-cleavage": 0.61}
{"variant": "U37C A52G", "self-cleavage": 1.4}
{"variant": "U37C A52U", "self-cleavage": 0.57}
{"variant": "A36G G106A", "self-cleavage": 0.02}
{"variant": "C34U A116G", "self-cleavage": 0.54}
{"variant": "C34U G44A", "self-cleavage": 1.66}
{"variant": "U37C C105U", "self-cleavage": 0.15}
{"variant": "U37A A51U", "self-cleavage": 1.05}
{"variant": "A36U U87C", "self-cleavage": 1.76}
{"variant": "U37C A54G", "self-cleavage": 1.51}
{"variant": "U38A A56G", "self-cleavage": 0.94}
{"variant": "U37G A91G", "self-cleavage": 1.82}
{"variant": "A36C A62G", "self-cleavage": 2}
{"variant": "A36C U49C", "self-cleavage": 1.28}
{"variant": "A36U U120A", "self-cleavage": 2.08}
{"variant": "U38A A62G", "self-cleavage": 1.19}
{"variant": "U37C U87A", "self-cleavage": 1.49}
{"variant": "A36G U127A", "self-cleavage": 1.87}
{"variant": "A36G U127C", "self-cleavage": 1.34}
{"variant": "A36G A68G", "self-cleavage": 2.06}
{"variant": "A36G A68U", "self-cleavage": 1.65}
{"variant": "A36G G104A", "self-cleavage": 0.07}
{"variant": "A36U C113U", "self-cleavage": 0.02}
{"variant": "A36G U72C", "self-cleavage": 0.14}
{"variant": "A36C G41U", "self-cleavage": 1.47}
{"variant": "U37C U102A", "self-cleavage": 1.05}
{"variant": "A36U A82U", "self-cleavage": 0.31}
{"variant": "A36G", "self-cleavage": 1.39}
{"variant": "A36C", "self-cleavage": 1.52}
{"variant": "A36U", "self-cleavage": 1.38}
{"variant": "U37C U70C", "self-cleavage": 0.2}
{"variant": "C34U A125G", "self-cleavage": 0.63}
{"variant": "A36U U39C", "self-cleavage": 1.03}
{"variant": "C35U A91G", "self-cleavage": 1.19}
{"variant": "C34U A64G", "self-cleavage": 0.98}
{"variant": "C34U U139A", "self-cleavage": 1.61}
{"variant": "U37C C61A", "self-cleavage": 0.78}
{"variant": "U37C A62G", "self-cleavage": 1.57}
{"variant": "A36U A90G", "self-cleavage": 1.74}
{"variant": "U37G A60G", "self-cleavage": 1.48}
{"variant": "A36U A78G", "self-cleavage": 0.21}
{"variant": "A36G C71U", "self-cleavage": 0.31}
{"variant": "C34A", "self-cleavage": 1.12}
{"variant": "C34U", "self-cleavage": 1.35}
{"variant": "C34G", "self-cleavage": 1.98}
{"variant": "C35A U43A", "self-cleavage": 2.06}
{"variant": "A36C A111G", "self-cleavage": 0.02}
{"variant": "C35U U87C", "self-cleavage": 1}
{"variant": "U37A A135U", "self-cleavage": 2.22}
{"variant": "C34U A117G", "self-cleavage": 1.91}
{"variant": "C35U U122C", "self-cleavage": 1.07}
{"variant": "C35U U122A", "self-cleavage": 1.26}
{"variant": "U37C G93U", "self-cleavage": 1.07}
{"variant": "A36G C128A", "self-cleavage": 1.16}
{"variant": "U37C A110C", "self-cleavage": 0.1}
{"variant": "U37C A64G", "self-cleavage": 1.54}
{"variant": "U37C", "self-cleavage": 1.27}
{"variant": "U37G", "self-cleavage": 1.62}
{"variant": "U37A", "self-cleavage": 1.27}
{"variant": "U37G A52G", "self-cleavage": 1.48}
{"variant": "C35A A36U", "self-cleavage": 0.97}
{"variant": "A36G U37G", "self-cleavage": 1.45}
{"variant": "A36U A96G", "self-cleavage": 1.74}
{"variant": "A36C A78C", "self-cleavage": 0.32}
{"variant": "A36G A140G", "self-cleavage": 1.31}
{"variant": "A36U A89G", "self-cleavage": 1.41}
{"variant": "A36U U97A", "self-cleavage": 2.69}
{"variant": "A36U U97C", "self-cleavage": 0.37}
{"variant": "A33U U124C", "self-cleavage": 1.22}
{"variant": "A36U U38C", "self-cleavage": 1.51}
{"variant": "U37C A118G", "self-cleavage": 1.36}
{"variant": "C34A A52G", "self-cleavage": 1.28}
{"variant": "U37C A66G", "self-cleavage": 1.73}
{"variant": "U37C A66C", "self-cleavage": 1.34}
{"variant": "A36G G99A", "self-cleavage": 0.74}
{"variant": "C34U C101A", "self-cleavage": 0.21}
{"variant": "A36G G119C", "self-cleavage": 1.4}
{"variant": "C34U A96C", "self-cleavage": 0.19}
{"variant": "U38A A78G", "self-cleavage": 0.26}
{"variant": "U38A A78U", "self-cleavage": 0.39}
{"variant": "A36G A82U", "self-cleavage": 0.1}
{"variant": "A36G A82G", "self-cleavage": 0.53}
{"variant": "C34U U43C", "self-cleavage": 1.48}
{"variant": "A36G A135G", "self-cleavage": 1.59}
{"variant": "U38A A52U", "self-cleavage": 1.64}
{"variant": "U37C U108A", "self-cleavage": 0.04}
{"variant": "U37C U108C", "self-cleavage": 0.01}
{"variant": "U37C A63G", "self-cleavage": 0.79}
{"variant": "U37C A96G", "self-cleavage": 1.36}
{"variant": "U37C A96U", "self-cleavage": 1.84}
{"variant": "A36U C128A", "self-cleavage": 1.18}
{"variant": "U37G G138A", "self-cleavage": 1.23}
{"variant": "U37A U72C", "self-cleavage": 0.37}
{"variant": "U37A C61U", "self-cleavage": 0.86}
{"variant": "U37C G136U", "self-cleavage": 1.97}
{"variant": "A36G A54G", "self-cleavage": 0.96}
{"variant": "C34U A69U", "self-cleavage": 2.37}
{"variant": "C35A C61U", "self-cleavage": 1.59}
{"variant": "U37G A55G", "self-cleavage": 1.07}
{"variant": "A36G A96G", "self-cleavage": 1.13}
{"variant": "C34U A111G", "self-cleavage": 0.04}
{"variant": "A36U A59U", "self-cleavage": 1.33}
{"variant": "A36U A59G", "self-cleavage": 1.26}
{"variant": "U37C U100C", "self-cleavage": 1.67}
{"variant": "U37C U100A", "self-cleavage": 0.52}
{"variant": "U37C U133C", "self-cleavage": 1.16}
{"variant": "U37C U133A", "self-cleavage": 1.34}
{"variant": "U38A A98G", "self-cleavage": 0.91}
{"variant": "A36C U131C", "self-cleavage": 1.1}
{"variant": "U37C A135G", "self-cleavage": 0.95}
{"variant": "U37C A114U", "self-cleavage": 0.15}
{"variant": "A36G U57G", "self-cleavage": 0.68}
{"variant": "A36G U57C", "self-cleavage": 1.27}
{"variant": "C34U A60G", "self-cleavage": 1.29}
{"variant": "A36U A54C", "self-cleavage": 1.73}
{"variant": "A36U A54G", "self-cleavage": 1.02}
{"variant": "A36U U132C", "self-cleavage": 1.2}
{"variant": "U37C A94U", "self-cleavage": 1.67}
{"variant": "A36G A89U", "self-cleavage": 2.21}
{"variant": "A36G A98C", "self-cleavage": 2.03}
{"variant": "C34U A36U", "self-cleavage": 1.19}
{"variant": "A36G A116U", "self-cleavage": 1}
{"variant": "A36U U70G", "self-cleavage": 1.53}
{"variant": "U37G A111G", "self-cleavage": 0.03}
{"variant": "A36U A55G", "self-cleavage": 1.4}
{"variant": "A36G A66U", "self-cleavage": 2.4}
{"variant": "A36G A134U", "self-cleavage": 1.6}
{"variant": "U37C U103A", "self-cleavage": 0.5}
{"variant": "U37C U103G", "self-cleavage": 0.02}
{"variant": "U37C U103C", "self-cleavage": 0.32}
{"variant": "C35U U131C", "self-cleavage": 0.58}
{"variant": "U38A A89U", "self-cleavage": 2.11}
{"variant": "A36G G79A", "self-cleavage": 0.1}
{"variant": "A36C A51U", "self-cleavage": 2.34}
{"variant": "U38A A67G", "self-cleavage": 0.89}
{"variant": "U37A U108C", "self-cleavage": 0}
{"variant": "C35G A59G", "self-cleavage": 1.58}
{"variant": "A33U C81U", "self-cleavage": 0.27}
{"variant": "A33U U127C", "self-cleavage": 1}
{"variant": "C35U A118G", "self-cleavage": 0.99}
{"variant": "A36G A111C", "self-cleavage": 0}
{"variant": "A36G A111G", "self-cleavage": 0.03}
{"variant": "A36U A111G", "self-cleavage": 0.02}
{"variant": "C34A U122C", "self-cleavage": 0.77}
{"variant": "A36U A98U", "self-cleavage": 2.42}
{"variant": "C35U A95G", "self-cleavage": 1.74}
{"variant": "A36U U139A", "self-cleavage": 2.31}
{"variant": "U37G A47G", "self-cleavage": 1.16}
{"variant": "U37C U43G", "self-cleavage": 1.46}
{"variant": "U37C U43C", "self-cleavage": 2.16}
{"variant": "A36C A126G", "self-cleavage": 1.17}
{"variant": "C35U U103C", "self-cleavage": 0.29}
{"variant": "A36G U108A", "self-cleavage": 0.01}
